According to the supplement of paper PMC9170038:

Test system: MS2 coat protein
Test: apparent KD of MS2 coat protein; designed switch direction (-1 OFF switch, 1 ON switch): -1; higher = weaker reporter binding
How it was run: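 Designed RNA switches with common flanks were transcribed on Illumina chips by stalled E. coli RNA polymerase and titrated with SNAP-549-labelled MS2 coat protein, from 0.7 or 1.5 nM doubling to 3 µM, in Tris-HCl pH 7.5 buffer with KCl, MgCl2, BSA, DTT, tRNA and Tween-20. Steps lasted 0.8–1.5 h (lowest) to 10–20 min (highest). Titrations ran without input, with 200 uM small-molecule ligand, or with an oligonucleotide input. Normalised cluster fluorescence was curve-fitted, and apparent KD is the per-design median over clusters.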

[1] = input ligand: microRNA oligo, concentration not stated
[2] = Eterna round: R95, input ligand: FMN 200 uM
[3] = Eterna round: R95, input ligand: microRNA oligo, concentration not stated
[4] = Eterna round: R95, input ligand: none

Sequence	apparent KD of MS2 coat protein (input ligand: FMN 200 uM)	apparent KD of MS2 coat protein [1]	apparent KD of MS2 coat protein (input ligand: none)	apparent KD of MS2 coat protein [2]	apparent KD of MS2 coat protein [3]	apparent KD of MS2 coat protein [4]
GCGCCAUCGUGAGAUGGCGUAAUUACAUGAGGAUCACCCAUGUAGGAUAUCGAUUGCUUUGCAGUCGAGAAGGACAUGAUAAUU [JL ENG3 3.80] (Eterna round: R96, puzzle: Exclusion NG 3)	104 nM	25 nM	33.7 nM	–	–	–
GCGCCAUCGUGAGAUGGCGUAAUUACAUGAGGAUCACCCAUGUAGGAUAUCGAUUGCUUUGCAGUCGAGAAGGGCAAGGUUUGU [JL ENG3 3.84] (Eterna round: R96, puzzle: Exclusion NG 3)	25.7 nM	19.9 nM	30.9 nM	–	–	–
GCGGACAAGAUCGUGAGAUCAGAGACAUGAGGAUCACCCAUGUAGGAUAUCGAUUCGAAACGAAUCGAGAAGGGCAUAGUCCGC [JL denovo 6] (Eterna round: R96, puzzle: Exclusion NG 3)	20.5 nM	14.9 nM	19.8 nM	–	–	–
GCGGACUAGAACGUGAGUUCUGAGACAUGAGGAUCACCCAUGUAGGAUAUCGAUUCGUUUCGAAUCGAGAAGGGCAUAGUCCGC [JL denovo 12] (Eterna round: R96, puzzle: Exclusion NG 3)	21.3 nM	14.2 nM	20.3 nM	–	–	–
GCGGAUUAUGUAGGAUAUCGGUCAGUUUCUGAUCGAGAAGGACAUGAGGAUCACCCAUGUAAAUUGCCCGCUUUGUGGGUCCGC [JL ENG1 3.62] (Eterna round: R96, puzzle: Exclusion NG 1)	41.7 nM	15 nM	15.7 nM	–	–	–
GCGUACUGAGGAUAUACAUGAGGAUCACCCAUGUAACACAGCAUAUAUAGAUAUUUUUGUAGAAGGCAGUAUGC [JR_Ex3_Sub057] (Eterna round: R97, puzzle: Exclusion 3)	40.2 nM	–	17.5 nM	–	–	–
GCGUACUGAGGAUAUACAUGAGGAUCACCCAUGUAACACAGCAUAUGUGAAGUUUUUUGUAGAAGGCAGUAUGC [JR_Ex3_Sub056] (Eterna round: R97, puzzle: Exclusion 3)	180 nM	–	28.7 nM	–	–	–
GCGUACUGAGGAUAUACAUGAGGAUCACCCAUGUGAAGAAGAAAGUAGUGAUGGUUAAGUAGAAGGCAGUAUGC [JR_Ex3_Sub063] (Eterna round: R97, puzzle: Exclusion 3)	411 nM	–	113 nM	–	–	–
GCGUCGAGUGUGAGGAUAUGCUGGUCAUAAGAUCAGCAGAAGGCACAUGAGGAUCACCCAUGUGAAAACGAUGC [Mat - Exclusion 4 - JL Mod - D69] (puzzle: Brourd's mod of Exclusion 4)	–	–	–	73.2 nM	16.3 nM	20.6 nM
GCGUUCUGAGGAUAUACAUGAGGAUCACCCAUGUUGAGAAAUAAGAAUAAGCCCUUAAGUAGAAGGCAGAGUGC [JR_Ex3_Sub073] (Eterna round: R97, puzzle: Exclusion 3)	105 nM	–	27.8 nM	–	–	–
GCGUUUUGGUGAGGAUAUCGGCCCGAAACCGGGCAACAUGAGGAUCACCCAUGUACGUGAUCCUGCGAGAAGGCACCGAUUAUA [Bedi] (Eterna round: R96, puzzle: Exclusion NG 2)	990 nM	60.7 nM	964 nM	–	–	–
GCUAAGAGUGUGAGGAUAUGCUGGUCCUUGGAUCAGCAGAAGGCACAUGAGGAUCACCCAUGUGAAAACUUAGC [Mat - Exclusion 4 - JL Mod - D64] (puzzle: Brourd's mod of Exclusion 4)	–	–	–	–	19.9 nM	–
GCUAGAGCAGGAUAUCGAGAUCCGCACAUGAGGAUCACCCAUGUACGGUCGAAAGACCGACGAGAAGGGCUCUAGC [Omei Ex5 E10] (Eterna round: R97, puzzle: Exclusion 5)	178 nM	–	186 nM	–	–	–
GCUAGAGCAGGAUAUCUAGAUCCACACAUGAGGAUCACCCAUGUAUAGUCGAAAGACUAAAGAGAAGGGCUCUAGC [Omei Ex5 E14] (Eterna round: R97, puzzle: Exclusion 5)	72.7 nM	–	61.8 nM	–	–	–
GCUAGGAGUGUGAGGAUAUGCAGUUCCUUGGAACUGCAGAAGGCACAUGAGGAUCACCCAUGUGAAGACCUAGC [Mat - Exclusion 4 - JL Mod - D4] (Eterna round: R97, puzzle: Brourd's mod of Exclusion 4)	212 nM	–	26.6 nM	–	–	–
GCUAGGCAUGUCAGGAUAUGCUGUACCUUGGUACAGCAGAAGGGACAUGAGGAUCACCCAUGUGCCUACCUAGC [JL-BMX4-4.04] (Eterna round: R97, puzzle: Brourd's mod of Exclusion 4)	173 nM	–	28.3 nM	–	–	–
GCUCGUGGGCAAGGAUAUCCUACGCUGUUCUGGUUCGUGUCUGUCACAUGAGGAUCACCCAUGUGGGAGAAGGUGCAUUUGGGU [Design 56] (Eterna round: R96, puzzle: Exclusion NG 2)	18.2 nM	15.9 nM	20.6 nM	–	–	–

Sequence	apparent KD of MS2 coat protein (input ligand: FMN 200 uM)	apparent KD of MS2 coat protein [1]	apparent KD of MS2 coat protein (input ligand: none)	apparent KD of MS2 coat protein [2]	apparent KD of MS2 coat protein [3]	apparent KD of MS2 coat protein [4]
GCUGCAAAUGUAGGAUAUCUGCACGUGUAGUGCAGAGAAGGACAUGAGGAUCACCCAUGUAGAUCAGCAGCAAUUAAUUUAAUU [ENG1/5-A3] (Eterna round: R96, puzzle: Exclusion NG 1)	288 nM	34.5 nM	42.2 nM	–	–	–
GCUGCGCGAGGAUAUGCGGUUCGCGCGGUGGCCCGUGGCGGACAUGAGGAUCACCCAUGUAGAAGGCGUGCGGG [Apr-15 SS2-59] (puzzle: Exclusion 2)	–	–	–	–	11.2 nM	–
GCUGGAAAAGGAUAUACAUAACGUGCGUCGGCACGAGACCUACAUGAGGAUCACCCAUGUAGAAGGUUUCCAGC [EX2 #74] (Eterna round: R97, puzzle: Exclusion 2)	20.9 nM	–	13.6 nM	–	–	–
GCUGGACAAGGAUAUAUAUGACGUGCUUCGGCACGAAGGUCACAUGAGGAUCACCCAUGUAGAAGGUGUCCAGC [E2/9-C2] (Eterna round: R97, puzzle: Exclusion 2)	342 nM	–	49.7 nM	–	–	–
GCUGGUCAAGGAUAUAUAUGACGUGCUUCGGCACGAAGGUCACAUGAGGAUCACCCAUGUAGAAGGUGACCAGC [E2/9-C1] (Eterna round: R97, puzzle: Exclusion 2)	304 nM	–	39.7 nM	–	–	–
GCUGGUCGAGGAUAUACAUGAGGAUCACCCAUGUGAUUAGCAGUCCUCGGACUGCAAUGUAGAAGGUGACCAGC [E3/2-B1] (Eterna round: R97, puzzle: Exclusion 3)	907 nM	–	198 nM	–	–	–
GCUGGUCGAGGAUAUGCAUUCGUGCUUCGGCACGUAAGGUCACAUGAGGAUCACCCAUGUAGAAGGCGACCAGC [E2/6-A1] (Eterna round: R97, puzzle: Exclusion 2)	30.2 nM	–	17.5 nM	–	–	–
GCUUGGCGAGGAUAUACAUGAGGAUCACCCAUGUGAGAGAAAUAAGUGAGGAAGAAAAGUAGAAGGCGCUGAGG [Mat - Exclusion 3 - Mod of Salish D59] (puzzle: Exclusion 3)	–	–	–	167 nM	58.9 nM	61 nM
GCUUGUGGGCAAGGAUAUCCUGCGCUGUUCUGGUUCGUGUCUGUCACAUGAGGAUCACCCAUGUGGGAGAAGGUGCCUGUGGCG [Design 66] (Eterna round: R96, puzzle: Exclusion NG 2)	22 nM	17.4 nM	24.2 nM	–	–	–
GCUUGUGGGCAAGGAUAUCCUGCGCUGUUCUGGUUCGUGUCUGUCACAUGAGGAUCACCCAUGUGGGAGAAGGUGCCUUUGGUG [Design 64] (Eterna round: R96, puzzle: Exclusion NG 2)	13.4 nM	10.9 nM	14.9 nM	–	–	–
GCUUUAUGCUCGUUAUAACACAUGAGGAUCACCCAUGUUCGGGCUUACGAGUCGUUCUGAAUGUGACCCUGCAUGAG [Eternabot (L2) Solution 47] (Eterna round: R97, puzzle: Sensor, turn-off variant 1)	200 nM	–	193 nM	–	–	–
GCUUUUGGGCAAGGAUAUCCUGCGCGGUUCCGGUUCGUGUCUGUCACAUGAGGAUCACCCAUGUGGGAGAAGGUGCCUGCGGUG [Design 73] (Eterna round: R96, puzzle: Exclusion NG 2)	21.5 nM	11.7 nM	19 nM	–	–	–
GGAAAGCAAGGAUAUACAAGUAAACGAUGGAAAGUAGAGAGACAUGAGGAUCACCCAUGUAGAAGGUGCGAGAG [JR_Exclu2_Sub036] (puzzle: Exclusion 2)	–	–	–	24.1 nM	30.1 nM	22.2 nM
GGAAAGGUAGGAUAUACGAAAAAAAAGGGUAGAAAAAAAACACAUGAGGAUCACCCAUGUAGAAGGACCAAAAG [salish99_ex2_r3_036] (puzzle: Exclusion 2)	–	–	–	44.8 nM	36.1 nM	33 nM
GGAAAGGUAGGAUAUACGAAGAAAAAGGGUAGAAGAAAAACACAUGAGGAUCACCCAUGUAGAAGGACCAAAGG [Mat - Exclusion 2 - Mod of my Tesla design - D2] (puzzle: Exclusion 2)	–	–	–	51.4 nM	22.1 nM	23.4 nM
GGAAAGUGAGGAUAUGGUAAAGUAAGUAUGUAGUAAGUAAUCCAGAAGGCACAUGAGGAUCACCCAUGUAAAGG [Mat - Exclusion 4 - D101] (puzzle: Exclusion 4)	–	–	–	24.8 nM	25.4 nM	26.8 nM
GGAGAGUCAGGAUAUACAUGAGGAUCACCCAUGUUGGAAAGUGGAGGGACGGGAGUCCGUAGAAGGGACGAGAG [Identicality] (puzzle: Exclusion 3)	–	–	–	–	27.7 nM	–
